Laboratory results from PMC10266979.

How the values were obtained:
[1] = target: neuraminidase (N1) of influenza A virus A/Hawaii/66/2019 (H1N1) (influenza A virus A/Hawaii/66/2019 (H1N1))
[2] = target: neuraminidase (N1) of influenza A virus A/Idaho/07/2018 (H1N1) (influenza A virus A/Idaho/07/2018 (H1N1))
[3] = target: neuraminidase (N1) of influenza A virus A/Illinois/45/2019 (H1N1) (influenza A virus A/Illinois/45/2019 (H1N1))
[4] = target: neuraminidase (N1) of influenza A virus A/Michigan/45/2015 (H1N1) (influenza A virus A/Michigan/45/2015 (H1N1))
[5] = target: neuraminidase (N1) of influenza A virus A/Puerto Rico/1934 (H1N1) (influenza A virus A/Puerto Rico/8/34 (H1N1)) (UniProt P03468)
[6] = target: neuraminidase (N1) of influenza A virus A/Victoria/2570/2019 (H1N1) (influenza A virus A/Victoria/2570/2019 (H1N1))
[7] = target: neuraminidase (N2) of influenza A virus A/Cambodia/E0826360/2020 (H3N2) (influenza A virus A/Cambodia/E0826360/2020 (H3N2))
[8] = target: neuraminidase (N2) of influenza A virus A/Darwin/6/2021 (H3N2) (influenza A virus A/Darwin/6/2021 (H3N2))
[9] = target: neuraminidase (N2) of influenza A virus A/HongKong/4801/2014 (H3N2) (influenza A virus A/HongKong/4801/2014 (H3N2))
[10] = target: neuraminidase (N2) of influenza A virus A/Kansas/14/2017 (H3N2) (influenza A virus A/Kansas/14/2017 (H3N2))
[11] = target: neuraminidase (N2) of influenza A virus A/Michigan/173/2020 (H3N2) (influenza A virus A/Michigan/173/2020 (H3N2))
[12] = target: neuraminidase (N2) of influenza A virus A/SouthAustralia/34/2019 (H3N2) (influenza A virus A/SouthAustralia/34/2019 (H3N2))
[13] = target: neuraminidase (N2) of influenza A virus A/Tasmania/503/2020 (H3N2) (influenza A virus A/Tasmania/503/2020 (H3N2))
[14] = target: neuraminidase (N2) of influenza A virus A/Victoria/361/2011 (H3N2) (influenza A virus A/Victoria/361/2011 (H3N2))
[15] = target: neuraminidase of influenza B virus B/Brisbane/35/2018 (Victoria) (influenza B virus B/Brisbane/35/2018 (Victoria))
[16] = target: neuraminidase of influenza B virus B/Brisbane/60/2008 (Victoria) (influenza B virus B/Brisbane/60/2008 (Victoria))
[17] = target: neuraminidase of influenza B virus B/Colorado/6/2017 (Victoria) (influenza B virus B/Colorado/6/2017 (Victoria))
[18] = target: neuraminidase of influenza B virus B/Laos/0080/2016 (Victoria) (influenza B virus B/Laos/0080/2016 (Victoria))
[19] = target: neuraminidase of influenza B virus B/Phuket/3073/2013 (Yamagata) (influenza B virus B/Phuket/3073/2013 (Yamagata))
[20] = target: neuraminidase of influenza B virus B/Texas/6/2011 (Yamagata) (influenza B virus B/Texas/6/2011 (Yamagata))
[21] = target: neuraminidase of influenza B virus B/Utah/9/2014 (Yamagata) (influenza B virus B/Utah/9/2014 (Yamagata))
[22] = target: neuraminidase of influenza B virus B/Washington/02/2019 (Victoria) (influenza B virus B/Washington/02/2019 (Victoria))
[23] = target: recombinant N2 NA A/Hong Kong/2671/2019 (N245 glycan) (influenza A virus H3N2 A/Hong Kong/2671/2019)
[24] = target: recombinant N2 NA A/Hong Kong/2671/2019 (N245 glycan) (influenza A virus H3N2 A/Hong Kong/2671/2019); test: SPR
[25] = target: neuraminidase of influenza B virus B/Lee/1940 (Ancestral) (influenza B virus B/Lee/1940 (Ancestral)) (UniProt P03474)
Sequence of UniProt P03474 (P03474 whole entry): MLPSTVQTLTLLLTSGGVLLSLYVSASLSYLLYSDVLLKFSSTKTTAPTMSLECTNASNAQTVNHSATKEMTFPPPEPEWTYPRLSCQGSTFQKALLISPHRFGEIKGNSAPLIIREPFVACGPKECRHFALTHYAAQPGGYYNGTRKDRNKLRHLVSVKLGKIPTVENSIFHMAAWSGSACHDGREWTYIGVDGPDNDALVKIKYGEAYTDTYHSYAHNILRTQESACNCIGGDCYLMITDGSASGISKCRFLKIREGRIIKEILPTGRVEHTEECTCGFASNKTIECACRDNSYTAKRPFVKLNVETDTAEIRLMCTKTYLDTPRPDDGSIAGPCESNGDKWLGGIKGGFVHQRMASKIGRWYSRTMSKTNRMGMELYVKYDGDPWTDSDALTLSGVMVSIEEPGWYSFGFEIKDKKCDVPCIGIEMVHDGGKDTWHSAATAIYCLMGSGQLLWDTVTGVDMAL

Row | Substance | In vitro neutralization IC50; virus A/Hawaii/66/2019 (H1N1); mAb as IgG [1] | In vitro neutralization IC50; virus A/Idaho/07/2018 (H1N1); mAb as IgG [2] | In vitro neutralization IC50; virus A/Illinois/45/2019 (H1N1); mAb as IgG [3] | In vitro neutralization IC50; virus A/Michigan/45/2015 (H1N1); mAb as IgG [4] | In vitro neutralization IC50; virus A/Puerto Rico/1934 (H1N1); mAb as IgG [5] | In vitro neutralization IC50; virus A/Victoria/2570/2019 (H1N1); mAb as IgG [6] | In vitro neutralization IC50; virus A/Cambodia/E0826360/2020 (H3N2); mAb as IgG [7] | In vitro neutralization IC50; virus A/Darwin/6/2021 (H3N2); mAb as IgG [8] | In vitro neutralization IC50; virus A/HongKong/4801/2014 (H3N2); mAb as IgG [9] | In vitro neutralization IC50; virus A/Kansas/14/2017 (H3N2); mAb as IgG [10] | In vitro neutralization IC50; virus A/Michigan/173/2020 (H3N2); mAb as IgG [11] | In vitro neutralization IC50; virus A/SouthAustralia/34/2019 (H3N2); mAb as IgG [12] | In vitro neutralization IC50; virus A/Tasmania/503/2020 (H3N2); mAb as IgG [13] | In vitro neutralization IC50; virus A/Victoria/361/2011 (H3N2); mAb as IgG [14] | In vitro neutralization IC50; virus B/Brisbane/35/2018 (Victoria); mAb as IgG [15] | In vitro neutralization IC50; virus B/Brisbane/60/2008 (Victoria); mAb as IgG [16] | In vitro neutralization IC50; virus B/Colorado/6/2017 (Victoria); mAb as IgG [17] | In vitro neutralization IC50; virus B/Laos/0080/2016 (Victoria); mAb as IgG [18] | In vitro neutralization IC50; virus B/Phuket/3073/2013 (Yamagata); mAb as IgG [19] | In vitro neutralization IC50; virus B/Texas/6/2011 (Yamagata); mAb as IgG [20] | other results
1 | 1G01 Fab | 0.306 µg/mL | 0.293 µg/mL | 0.673 µg/mL | 0.57 µg/mL | 4.81 µg/mL | 15.1 µg/mL | 18.6 µg/mL | > 50 µg/mL | 0.058 µg/mL | 4.52 µg/mL | 6.2 µg/mL | 4.4 µg/mL | 26.1 µg/mL | 0.039 µg/mL | > 50 µg/mL | > 50 µg/mL | 1.63 µg/mL | 13.5 µg/mL | > 50 µg/mL | > 50 µg/mL | In vitro neutralization IC50; virus B/Utah/9/2014 (Yamagata); mAb as IgG [21]: > 50 µg/mL; In vitro neutralization IC50; virus B/Washington/02/2019 (Victoria); mAb as IgG [22]: 5.61 µg/mL; In vitro neutralization IC50; virus A/HongKong/2671/2019 (H3N2); mAb as IgG [23]: 21.5 µg/mL; Kd [24]: 375 nM
2 | FNI9 Fab | 0.039 µg/mL | 0.079 µg/mL | 0.243 µg/mL | 0.151 µg/mL | 0.028 µg/mL | 0.168 µg/mL | 1.61 µg/mL | 1.13 µg/mL | 0.022 µg/mL | 0.284 µg/mL | 3.09 µg/mL | 0.76 µg/mL | 2.01 µg/mL | 0.082 µg/mL | 0.026 µg/mL | 1.16 µg/mL | 0.669 µg/mL | 0.047 µg/mL | 0.193 µg/mL | 0.104 µg/mL | In vitro neutralization IC50; virus B/Lee/1940 (Ancestral); mAb as IgG [25]: 0.051 µg/mL; In vitro neutralization IC50; virus B/Utah/9/2014 (Yamagata); mAb as IgG [21]: 0.245 µg/mL; In vitro neutralization IC50; virus B/Washington/02/2019 (Victoria); mAb as IgG [22]: 0.031 µg/mL; In vitro neutralization IC50; virus A/HongKong/2671/2019 (H3N2); mAb as IgG [23]: 0.073 µg/mL; Kd [24]: 16 nM
3 | FNI19 Fab | 0.021 µg/mL | 0.043 µg/mL | 0.039 µg/mL | 0.062 µg/mL | 0.012 µg/mL | 0.071 µg/mL | 1.47 µg/mL | 2.79 µg/mL | 0.122 µg/mL | 0.559 µg/mL | 1.77 µg/mL | 1.11 µg/mL | 1.18 µg/mL | 0.091 µg/mL | 0.02 µg/mL | 0.152 µg/mL | 1.17 µg/mL | 0.029 µg/mL | 0.222 µg/mL | 0.229 µg/mL | In vitro neutralization IC50; virus B/Lee/1940 (Ancestral); mAb as IgG [25]: 0.211 µg/mL; In vitro neutralization IC50; virus B/Utah/9/2014 (Yamagata); mAb as IgG [21]: 0.391 µg/mL; In vitro neutralization IC50; virus B/Washington/02/2019 (Victoria); mAb as IgG [22]: 0.063 µg/mL; In vitro neutralization IC50; virus A/HongKong/2671/2019 (H3N2); mAb as IgG [23]: 0.19 µg/mL; Kd [24]: 15.1 nM
4 | FNI17 Fab | 0.018 µg/mL | 0.022 µg/mL | 0.035 µg/mL | 0.073 µg/mL | 0.011 µg/mL | 0.036 µg/mL | 24.3 µg/mL | > 50 µg/mL | 0.208 µg/mL | 0.485 µg/mL | 33.1 µg/mL | 2.98 µg/mL | 5.07 µg/mL | 0.175 µg/mL | 0.024 µg/mL | 0.191 µg/mL | 0.042 µg/mL | 0.018 µg/mL | 0.117 µg/mL | 0.062 µg/mL | In vitro neutralization IC50; virus B/Lee/1940 (Ancestral); mAb as IgG [25]: 0.071 µg/mL; In vitro neutralization IC50; virus B/Utah/9/2014 (Yamagata); mAb as IgG [21]: 0.392 µg/mL; In vitro neutralization IC50; virus B/Washington/02/2019 (Victoria); mAb as IgG [22]: 0.019 µg/mL; In vitro neutralization IC50; virus A/HongKong/2671/2019 (H3N2); mAb as IgG [23]: 5.07 µg/mL; Kd [24]: 2100 nM
